The nature of this data set: soluble on expression in E. coli; label from the status in PepcDB or PDB records.
For “MEYQLREIDESEKEITQQRKKNSVTTKNFDNLSNSNSQITEMTNEQGVIPLREKDLTINVGDNRNLKVEEFMTNFISNVFENKNALFLYCKYVLLFYGKELLNENNVESLNFEIIKGGITNILVKVEDNIHQNKYLIRLYGPKTSEIINREREKLISNILCDKNISKKIYVFFPNGRIEEFKDGYALSREDIKNKDFQKEIAENLRILHDIQLDDTIYKKLQALQNIQGNRSSFLWSTLWKYFNTLKEERQKKYSFNPKAYILKLIDFDMLESIITEIQELCCKKNSPVVLCHCDLLSSNIIKTEGSSISFIDFEYSCPMERAYDIANHFNEYAGFNCEWDLTPNRSEEYHFIKHYLKTDDEQLINQLIDEIQPFYVCSHIVWGLWALLQGLHSVIDFDFINYGMTRLTAAFSVKFRSKLEKN”, the “soluble on expression in E. coli” value is on record as “not soluble”.

As for “MSLIIAIQGGMAVGKTTALKIIEKVYPKIAISFEDISPVVDKINKHQLDNNKLDDYCEIQQLFIQHERDRYELVRDNEIVLMDYGAEEIAFYTQYFPKVAGYSWTLPSNLLLEVNRLKECFADYIIFLDADKTVLYQRQKNDFNRRRHFFKWYTHHLLPAKKHYLDTFSNVIHINTNHLNAEEVAEKIIDIIRKLTEGHHHHHH”, the “soluble on expression in E. coli” value is recorded as “soluble”.

Regarding “LTLRAGREQNIPMNLSDSWAARRPVTARVSAAEAVLADLRDAITSGELSVGERLPSEASLAARHGVSRSVIREALRSCHALGLTETKSGLGTFVVSDSIARDLDFGNYAANELVEARPHVEIPAAGWAAQRHTAEDLAALRGLVDQMRDEDDPLVWVSLDAQFHAFIARTSRNRVFESVIVDIREALTRQSETLNLVAGRQQKSNDEHDRIVEGIASGSYDKAARAMAEHLDAVRVALESVVGEAGPDRRQ”, the “soluble on expression in E. coli” value was “not soluble”.

As to “MLVGERLENEPNFYQEIDFLKHLAGINGVPVVHKHFQYEQKRVLVMDKYLENLEQFRKRKEDEKLSPRVVIKLAFRLVSILEHIHRKGVVHQDIKLDNVVFGAKVGNKLDIVLIDYGIAAFTKPKPPRDLVDGALHCTTDFSSSVYASPGLVQGLKGDPVDDLQMLSFMLLWASKYNPFGEDSLESLRKKKEFIAKPSIFTQGDYKFLRPVISKIMEQKRSKRPDYKAISKKCANKDNYFNPDTAVHLGNAYEFF”, the “soluble on expression in E. coli” value is “not soluble”.

Take “DLHEILHEAVPLDANEREILELKEDAFAQRRREIETRLRAANGKLADAIAKNPAWSPEVEAATQEVERAAGDLQRATLVHVFEMRAGLKPEHRPAYDRVLIDALRRGSQ”: the “soluble on expression in E. coli” value was “soluble”.

In the case of “MSKLFSEYKLKDVTLKNRIVMSPMCMYSVENKDGIATDFHFAHYVSRAAGGTGLVILEATAVQEVGRISEFDLGLWNDEQVPALKKLVGGLHYHGAKAGIQLAHAGRKAVLPGEIVAPSAIAFDEKSDKPVELTKEAIKEVVADFKRAAYRAKEAGFDVIEIHAAHGYLIHQFLSPITNRREDNYGGPAGNRYKILSDIIKAVKEVWDGPIIVRVSATDYAHGGLQLEDHIPFAKWMKADGVELIDVSTGGLVNVAPPVFPGYQVPFADEIRRGAGIATGALGLITRGEQAEEILCNERADLIIVGRELLRNPYFAKDAAKQLGETIEAPKQYSRAWK”, the “soluble on expression in E. coli” value is listed as “not soluble”.

Turning to “MGSDKIHHHHHHMKALIFDVDDTLYDQIQPFERALERHIEVAREQIEPLYLSFRRYADEVFEATAIGKMSLKDSHIYRMKHALADFGYQVSDATALAIQIDYDYFQGQIELSPVFPEIFSWCQAQGIAMGIITNGPYRHQLRKIRTMGLVNWFELEHVLISGQVGITKPNPAIFQLMEERLGMSGEDICYLGDSFENDVVGAKAANWKAIWFNHRKRVEPTAPYYAYYVVTDWDELVEVIQSF”, the “soluble on expression in E. coli” value is reported as “not soluble”.

Take “MSIEVIAVRLTKGMDLKLSLAKLVAEHDIKAGSIASCVGCISDLNLRLAGAESTLTKREPFEIVSVMGTLTPEHQHVHISVSDREGRVWGGHLLEGTVIDTTAELIIHSYSELEFTRAMDDSTGYTELQVNPSKLEHHHHHH”: the “soluble on expression in E. coli” value was “not soluble”.

For “MGSDKIHHHHHHLLASGLEYSHHMSPDAMVEDITRLVEIWVTGWAGCRGYETRTEGRFPAALRADTTKEWEYFAHDPSDTEFAELAAKTAEAPARILTILTNDVARYTYLAQQHGLNVTSASQTMMIVDMETRDSEDPWLSDDDLKLTTFKKDGVHHAVVNAGESVAASGRVFVVGHTAVFDKIVTEPAYQRRGLGSFIMKALAAQAFEHDVENGLLLASLDGQKLYSHLGWTTLCHVLMLSSSNEGADLSVG”, the “soluble on expression in E. coli” value was “not soluble”.

As to “MSLTLLALGINHKTAPVSLRERVSFSPDKLDQALDSLLAQPMVQGGVVLSTCNRTELYLSVEERDDLQEALIRWLCDYHNLNEDDLRNSLYWHQDNDAVSHLMRVASGLDSLVLGEPQILGQVKKAFADSQKGHMKASELERMFQKSFSVAKRVRTETDIGASAVSVAFAACTLARQIFESLSTVTVLLVGAGETIELVARHLREHKVQKMIIANRTRERAQILADEVGAEVIALSDIDERLREADIIISSTASPLPIIGKGMVERALKSRRNQPMLLVDIAVPRDVEPEVGKLANAYLYSVDDLQSIISHNLAQREGHHHHHH”, the “soluble on expression in E. coli” value is given as “not soluble”.

Regarding “DIQMTQSPSSLSASVGDRVTITCRTSGNIHNYLTWYQQKPGKAPQLLIYNAKTLADGVPSRFSGSGSGTQFTLTISSLQPEDFANYYCQHFWSLPFTFGQGTKVEIKRTGGGGSGGGGSGGGGSGGGGSEVQLVESGGGLVQPGGSLRLSCAASGFDFSRYDMSWVRQAPGKRLEWVAYISSGGGSTYFPDTVKGRFTISRDNAKNTLYLQMNSLRAEDTAVYYCARQNKKLTWFDYWGQGTLVTVSSHHHHHH”, the “soluble on expression in E. coli” value is “soluble”.

Regarding “MSLKVRNLNISLKNNLLLKDINLDIKTGKTLMILGQSGVGKSLLGKALVRLLDSNFTISFDELSFHNSCIFNFNKEELRNFRSKVALVLQDAELSLYPYLDIGNLCHLVLKTHTKLKQKERKDYAFSYFQKLGFENLDRLWHSYANELSLGMARRVSLALALLNQPQILICDEITASLDKENASKIISILEELKNTAALVCITHDLNLVNSLADEILMLEKNSSNLYSLDEFLRYYNAEGHHHHHH”, the “soluble on expression in E. coli” value is “soluble”.

“MGPVRFAPSILTADLARLGEAIREAEAAGVDWIHLDVMDGVFVPNLTFGPLLVEAVRRVTSLPLDVHLMIVKPERYLEDFAQAGADHITVHFEATYHPHRAVQKVKELGKKAGLAVNPGTPLEAFEPLLPDLDLALLMSVNPGFGGQRYLPTATERLRRLKAMRDRLNPACLIVVDGGINRDTVAEARRAGADVAVAGSALFNDKPVAENLKALRLALLG”: the “soluble on expression in E. coli” value was “soluble”.

For “VQAVAVLKGDAGVSGVVKFEQASESEPTTVSYEIAGNSPNAERGFHICEFGDATNGCVSAGPHFNPFKKTHGAPTDEVRHVGDMGNVKTDENGVAKGSFKDSLIKLIGPTSVVGRSVVIHAGQDDLGKGDTEESLKTGNAGPRPACGVIGLTN”, the “soluble on expression in E. coli” value was “soluble”.

In the case of “MSLNFIDEFRDKESILALKKLIEQELKNPINIMEICGGHTHSIMKYALPSILPKEINFIHGPGCPVCVMPRVRIDTAIKLASMKDTIFCTLGDLLRVPGSEISLLDLRAKGADVRALYSPLEVLEIAKQNLNKNIIFFAIGFETTTPMSALLLQKVIEEKINNVFFHINHITVPAPVEAIMNDENVKINAFLGPSHVSVITGYGIYEPLAAKFKTPIAVSGFEPVDILESVLNIIKQSNEGTFKVYNQYKRAVSKEGNVKAQNLVKKYFRVCDFEFRGLGLIKNGGLELKEEFSAYDASKKFDCTVQSKNESKACICGQILRGLAKPYDCKVFGKACTPRSPIGSCMVSGEGACAAYYKYSKVNAEGHHHHHH”, the “soluble on expression in E. coli” value is reported as “soluble”.

With “AIASYCRQEGKDKIIFVTKEDHETPSSAELIADDPNDPFEEQGLILPNGDINWNCPCLGGMASGPCGEQFKSAFSCFHYSQEEIKGSDCLDQFRAMQECMQKYPELYPQEDDEDELEKEKQNKDEESSVTQSSDTKEESSS”, the “soluble on expression in E. coli” value is reported as “soluble”.

On to “SLRGWRGLRVYDMHVHLHEYSDREVEEILDADKSLVVVAVSDDLESAWRTLDLWHTFGGRVVPCLGFHPWNVREGRVWEAWEVLRLAYRYGVPCLGEVGLDRRFVDEYTWRVQNEVFDAFVQLAEDMGVMLNIHAPDAWKHVAHRIGWTSRARFMYHWYTGPATLPRALPEGRVWFSINSAIRVQEKSVRVAREIPLRSLVVESDGPYNYRGLRLSPLMVRETVKLVAEARGEDPGRLMEAISLNSERLLGLL”, for which the “soluble on expression in E. coli” value is reported as “soluble”.

As to “MGSDKIHHHHHHKVRPTKTTLKKDTQLYGVTIDDSWYDRTKMTDIIAALKAMPVKPTVRIVMSKDSSPKSYVNLFRKLHKVAYVMACPVDSYEMNLYKDVNSYRKRFAVAYHYLSSYTDIWEIGNEVNGTDWIKQKNTLITQKLKAVCQTISSAGGKTALTFYYENPKYDHDMIAWIKKNIPVMLRSRVDYGFISYYEDDNEGYQPDWQSVFNQLQNLFPNSNVGMGECGNTADNATENSKIAMAKRYYTMPKYTKHYVGGYFWWEWVQDCVPHENNPIYDAINKSLKK”, the “soluble on expression in E. coli” value is “not soluble”.

Regarding “MSILVIGANGGVGSKLVSQLNEEHVDFTAGVRKEDQVKELENKGIKATLIDVEKNSINDLKNIFTDYDKVIFSVGSGGSTGADKTIIVDLDGAVKTIKASKEAGIKHYVMVSTYDSRREAFDASGDLKPYTIAKHYADDYLRTSDLNYTIVHPGSLTDDAGTGKIEADLYFDKAGSIPREDVATVLKEVVTSDGFNNQEFQILSGNHGVKDALKNYESLEHHHHHH”, the “soluble on expression in E. coli” value was “soluble”.

For “MAQQGVFTLPANTSFGVTAFANAANTQTIQVLVDNVVKATFTGSGTSDKLLGSQVLNSGSGAIKIQVSVNGKPSDLVSNQTILANKLNFAMVGSEDGTDNDYNDGIAVLNWPLG”, the “soluble on expression in E. coli” value was “soluble”.

As for “MGSDKIHHHHHHMSQLDMKMKLKQYEQTVIEYLGAQGGHFIVASDDQTFVGILRTTLLKQLAISGDPLTSVTDPDYILKVIRDTSLRRKHLVVFIERMMQGKDTSMLVRQMKNTFANVKIIILTGETERQRLVLLHEIGADNFISKPISINTLIEKIAFTIKPQGKLGQLIDAAKALVAQGNFETALKAARKILEVKPNSAAGYLVMGDAWQGLGKLDKARESFEQASEHANLYMEPLKKLAELHKLTGDMNERLRYLERLDQLSPLNVERKVDMGEIHVELGNEERAEELFETAVQQATKDALNYIGEISEKIAAVYSSRDPHKAEKYYRQALDAKGSHLDHTDIATFNRLGIALRRQGKWQQAIEEYEKALHITPDDPNLMYNMSMAYAEGRQFDKACSIVMRIRQITPSFGSMDKTLSYNMGIIFSRGRQPADARVLFENALRLDPSFEKAQKALENLES”, the “soluble on expression in E. coli” value is “not soluble”.

Consider “MEALRLGFSPCPNDTFIFYALVHGRVESPVPLEPVLEDVETLNRWALEGRLPLTKLSYAAYAQVRDRYVALRSGGALGRGVGPLVVARGPLQALEGLRVAVPGRHTTAYFLLSLYAQGFVPVEVRYDRILPMVAQGEVEAGLIIHESRFTYPRYGLVQVVDLGAWWEERTGLPLPLGAILARRDLGEGLIRALDEAVRRSVAYALAHPEEALDYMRAHAQELSDEVIWAHVHTYVNAFSLDVGEEGERAVARLFAEAEARGLAAPSPRPLFV”, for which the “soluble on expression in E. coli” value was “soluble”.

(Values after the DeepSol protein solubility set.)
